These results are taken from patent US20090215197A1, “TARGET SUBSTANCE CAPTURING MOLECULE” (CANON KABUSHIKI KAISHA, published 2009).

One may read the Kd as the free concentration of one partner at which half of the binding sites on the other are occupied at equilibrium, for simple one-to-one binding. A lower Kd goes with a tighter complex.

For test [1], the target named is T1, Maltose-binding protein (MBP) (Escherichia coli (strain K12), UniProt P0AEX9 = MBP). Nature of the test: SPR (BIAcore), MBP immobilized on CM5 chip, 0.1% Tween 20/PBS, 25 C.
The target in test [2] is T1, Maltose-binding protein (MBP). Nature of the test: SPR (BIAcore), same manner as in Example 10 (MBP immobilized on CM5 chip). The method, then:
In comparison with the single stranded MBP-bound VHH/MBP-bound ankyrine fused protein obtained in Example 4, and the MBP-bound VHH-Jun/MBP-bound ankyrine Fos hetero dimer obtained in Example 9, the MBP bound antibody domain (VHH), which is a single domain protein bound to MBP and represented by Sequence ID No. 2 and the MBP-bound ankyrine represented by Sequence ID No. 6 were evaluated by SPR (manufactured by BIAcore). As a substrate, CM5 (manufactured by BIAcore) is used. MBP is immobilized onto the substrate in accordance with the method recommended by the manufacturer. The MBP immobilized chip thus obtained is subjected to evaluation under the conditions: running Buffer: 0.1% Tween 20/PBS, flow rate: 20 μL/min, and temperature: 25° C. […] The capturing molecule according to the present invention has a high binding ability, compared to the capturing molecule known in the art binding to a target substance at a single epitope (or single site).
MBP-bound VHH-Jun fusion protein and MBP-bound peptide-Fos fusion protein hetero dimer obtained in Example 14 was evaluated for SPR (manufactured by BIAcore) in the same manner as in Example 10.
For orientation: Surface plasmon resonance follows binding to a sensor surface in real time, without labels.

B1: MBP bound antibody domain (VHH) (VHH)
VHH: QVQLQESGPGLLKPSETLFLTCTVSGFSISGGYYWGWFRQPPGKEREWIGSVYHSGSTYYNKSLESRVTISIHTSESQISLKLNSVTAADTAVYSCARYRTAHPLWGQGTMVTVSS
The molecule B1 came in with a Kd in test [1] of 1000 nM.

B2: MBP-bound VHH-Jun/MBP-bound ankyrine Fos hetero dimer (other)
chain 1: PWQVQLQESGPGLLKPSETLFLTCTVSGFSISGGYYWGWFRQPPGKEREWIGSVYHSGSTYYNKSLESRVTISIHTSESQISLKLNSVTAADTAVYSCARYRTAHPLWGQGTMVTVSSEFGGGGSGGGGSGGGGSRIARLEEKVKTLKAQNSELASTANMLREQVAQLKQKVMNYFGC
chain 2: PWNAADNTGTTPLHLAAYSGHLEIVEVLLKHGADVDASDVFGYTPLHLAAYWGHLEIVEVLLKNGADVNAMDSDGMTPLHLAAKWGYLEIVEVLLKHGADVNAQDKFGKTAFDISIDNGNEDLAEILQEFGGGGSGGGGSGGGGSLTDTLQAETDQLEDKKSALQC
Consider B2, for which the Kd in test [1] turned out to be 1 nM.

B3: MBP-bound VHH-Jun fusion protein and MBP-bound peptide-Fos fusion protein hetero dimer (other)
chain 1: PWQVQLQESGPGLLKPSETLFLTCTVSGFSISGGYYWGWFRQPPGKEREWIGSVYHSGSTYYNKSLESRVTISIHTSESQISLKLNSVTAADTAVYSCARYRTAHPLWGQGTMVTVSSEFGGGGSGGGGSGGGGSRIARLEEKVKTLKAQNSELASTANMLREQVAQLKQKVMNYFGC
chain 2: TPIHRRRQFNTGEFGGGGSGGGGSGGGGSLTDTLQAETDQLEDKKSALQTEIANLLKEKEKLEFILAAYRLC
Turning to B3, in test [2], the Kd was determined as 10 nM.
